# Experimental data reported in patent US20100048468A1 (Amgen, published 2010).
# Where two headings read alike, the source gives them in different places. Positions of bridges follow the written chain, without caps; N, C: chain ends. No end group written: not given here.
# T1: mouse GLP-1 receptor (mouse, UniProt O35659 22-463)
# T1 sequence (looked up): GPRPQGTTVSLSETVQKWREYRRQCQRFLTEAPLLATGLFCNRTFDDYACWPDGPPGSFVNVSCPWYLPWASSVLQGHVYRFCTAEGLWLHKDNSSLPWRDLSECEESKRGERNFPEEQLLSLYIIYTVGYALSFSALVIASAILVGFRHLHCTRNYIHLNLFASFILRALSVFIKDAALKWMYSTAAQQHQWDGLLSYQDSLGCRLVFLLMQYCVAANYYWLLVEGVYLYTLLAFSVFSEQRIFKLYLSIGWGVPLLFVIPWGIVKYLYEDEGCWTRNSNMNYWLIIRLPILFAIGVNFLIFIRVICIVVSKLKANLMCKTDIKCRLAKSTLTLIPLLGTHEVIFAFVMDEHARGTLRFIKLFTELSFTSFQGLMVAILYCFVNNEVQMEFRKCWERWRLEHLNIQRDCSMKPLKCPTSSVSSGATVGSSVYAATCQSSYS
# T2: mouse GLP-1 receptor (mouse), O35659
# T2 chain: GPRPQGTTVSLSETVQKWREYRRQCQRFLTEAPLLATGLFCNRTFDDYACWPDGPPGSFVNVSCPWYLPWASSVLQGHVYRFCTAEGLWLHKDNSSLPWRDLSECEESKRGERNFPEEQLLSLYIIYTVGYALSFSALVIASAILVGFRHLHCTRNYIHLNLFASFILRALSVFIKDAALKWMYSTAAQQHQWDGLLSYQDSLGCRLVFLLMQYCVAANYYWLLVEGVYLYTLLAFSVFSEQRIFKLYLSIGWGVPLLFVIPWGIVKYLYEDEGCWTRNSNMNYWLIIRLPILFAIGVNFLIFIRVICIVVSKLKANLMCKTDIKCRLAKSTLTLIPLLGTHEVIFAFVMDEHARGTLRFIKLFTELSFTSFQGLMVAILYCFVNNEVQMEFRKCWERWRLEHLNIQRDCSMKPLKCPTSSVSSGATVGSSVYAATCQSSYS
# T3: human GLP-1 receptor (human), P43220
# T3 chain: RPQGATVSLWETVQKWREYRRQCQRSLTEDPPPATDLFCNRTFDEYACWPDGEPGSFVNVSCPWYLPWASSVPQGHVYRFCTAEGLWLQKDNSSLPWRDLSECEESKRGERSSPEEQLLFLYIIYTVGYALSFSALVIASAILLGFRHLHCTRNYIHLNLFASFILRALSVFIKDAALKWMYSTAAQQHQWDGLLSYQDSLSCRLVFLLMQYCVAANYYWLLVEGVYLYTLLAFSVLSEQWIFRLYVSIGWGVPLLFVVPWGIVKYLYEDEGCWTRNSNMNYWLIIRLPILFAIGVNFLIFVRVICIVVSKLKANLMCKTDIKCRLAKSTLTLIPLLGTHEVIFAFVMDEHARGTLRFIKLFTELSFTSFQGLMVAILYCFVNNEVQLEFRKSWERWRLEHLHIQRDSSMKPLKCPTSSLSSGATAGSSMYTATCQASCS
# Columns and labels:
# human GLP-1 receptor [1] = target: T4, human GLP-1 receptor (human, UniProt P43220 24-463); assay: cell-based or functional assay
# mouse GLP-1 receptor [2] = target: T1, mouse GLP-1 receptor; assay: cell-based or functional assay
# human GLP-1 receptor [3] = target: T4, human GLP-1 receptor; assay: 125I-GLP-1 displacement, membranes of CHOK1 cells expressing human GLP-1 receptor
# human GLP-1 receptor [4] = target: T4, human GLP-1 receptor; assay: cell-based or functional assay; remark: listed apart in the source
# human GLP-1 receptor [5] = target: T4, human GLP-1 receptor; assay: 125I-GLP-1 displacement, membranes of CHOK1 cells expressing human GLP-1 receptor
# Procedure: Membrane Preparation. […] Cells were sedimented at 1500 rpm for 10 minutes. The resulting pellets were homogenized in 15 mls of ice cold sucrose buffer (25 mM Tris-HCl, 0.32 M Sucrose, 0.25 g/L, sodium azide, pH 7.4) with a motorized, glass fitted, Teflon homogenizer. The homogenate was centrifuged at 48,000×g at 4° C. for 10 minutes, resuspended in 25 ml assay buffer (50 mM Tris-HCl, 5 mM MgCl₂, 10 mg/ml protease-free BSA, 0.1 mg/ml STI, and 0.1 mg/ml Pefabloc, pH 7.4) with a Tissue-Tearor (Biospec Products), then centrifuged again at 48,000×g for 10 minutes. The pellets were homogenized for a third time in 15 ml assay buffer using the Tissue-Tearor and again centrifuged at 48,000×g for 10 minutes. The resulting pellet was resuspended in assay buffer at a wet weight concentration of 4 mg/ml.
# Ligand Binding Assay. Binding assays were performed in 96-well U-bottom plates. […] The reaction was terminated by rapid filtration through Unfilter-96 GF/C glass fiber filter plates (FilterMate 196 Packard Harvester, PerkinElmer, Shelton, Conn.) pre-soaked in 0.5% polyethylenimine, followed by three washes with 300 μl of cold 50 mM Tris-HCl, pH 7.4. Bound radioactivity was determined using a TopCount microplate scintillation and luminescence counter (Packard Instrument Company, PerkinElmer, Shelton, Conn.). […]
# mouse GLP-1 receptor [6] = target: T1, mouse GLP-1 receptor; assay: cell-based or functional assay; remark: listed apart in the source
# [7] = target: T2, mouse GLP-1 receptor (mouse), O35659; assay: cell-based or functional assay
# [8] = target: T3, human GLP-1 receptor (human), P43220; assay: cell-based or functional assay
# [9] = target: T3, human GLP-1 receptor (human), P43220; assay: 125I-GLP-1 displacement, membranes of CHOK1 cells expressing human GLP-1 receptor
molecule,measurement,setting,value
HGEGT FTSDV SSYLE [Aib]QAAK EFIAW LVKGR-AMIDE (SEQ ID NO: 14) (peptide),EC50 human,human GLP-1 receptor [1],0.016 nM
same,EC50 mouse,mouse GLP-1 receptor [2],0.15 nM
same,IC50,human GLP-1 receptor [3],2.5 nM
"HGEGTFTSDVSSYLEEQAAXEFIAWLVKGRG (ornithine at position 26 (GLP-1 numbering; residue 20 of the entry); side-chain cyclic lactam between Glu22 and Orn26; C-terminal amide, Not pegylated) [cycloE22-O26 (SEQ ID NO: 69)]",EC50 human,human GLP-1 receptor [4],0.051 nM
same,IC50,human GLP-1 receptor [5],3.7 nM
HGEGTFTSDVSSYLEKQAAEEFIAWLVKGRG-NH2 (lactam 16-20; N-terminus assumed; SMILES CC[C@H](C)[C@H](NC(=O)[C@H](Cc1ccccc1)NC(=O)[C@H](CCC(=O)O)NC(=O)[C@@H]1CCC(=O)NCCCC[C@H](NC(=O)[C@H](CCC(=O)O)NC(=O)[C@H](CC(C)C)NC(=O)[C@H](Cc2ccc(O)cc2)NC(=O)[C@H](CO)NC(=O)[C@H](CO)NC(=O)[C@@H](NC(=O)[C@H](CC(=O)O)NC(=O)[C@H](CO)NC(=O)[C@@H](NC(=O)[C@H](Cc2ccccc2)NC(=O)[C@@H](NC(=O)CNC(=O)[C@H](CCC(=O)O)NC(=O)CNC(=O)[C@@H](N)Cc2c[nH]cn2)[C@@H](C)O)[C@@H](C)O)C(C)C)C(=O)N[C@@H](CCC(N)=O)C(=O)N[C@@H](C)C(=O)N[C@@H](C)C(=O)N1)C(=O)N[C@@H](C)C(=O)N[C@@H](Cc1c[nH]c2ccccc12)C(=O)N[C@@H](CC(C)C)C(=O)N[C@H](C(=O)N[C@@H](CCCCN)C(=O)NCC(=O)N[C@@H](CCCNC(=N)N)C(=O)NCC(N)=O)C(C)C) [GLP1(7-37) cyclo[Lys16-Glu20] (SEQ ID NO: 159)],EC50 human,human GLP-1 receptor [4],0.016 nM
same,EC50 mouse,mouse GLP-1 receptor [6],0.1 nM
HGEGTFTSDVSSYLEGQAAKEFIAWLVKGRGCSG (modifications not checked) [cgGLP-10 (SEQ ID NO: 10 + 20k PEG dimer)],EC50 mouse,[7],4 nM
same,EC50 human,[8],0.6 nM
same,IC50,[9],100 nM
